The subject of the series is Site C binding proteins, HeLa nuclear fraction (HA pool; LBP-1b and LBP-1c/LSF identified by MS) (Homo sapiens). As to the kind of experiment: pulldown.

In the case of “TCGCGGCGAGAGTTTCAGGCAGCGCTGCGT (double strand) [OBC oligo]”, under “equivalent OBC column fraction, 6,300 units and 103 ug, four fold less Site C EMSA activity recovered than from Site C column”, the binding signal (fmol shifted per ug protein) worked out at 61.2.
As to “TCGCGGCGCGAGTTTCAGGCAGCGCTGCGT (double strand) [Site C oligo (hTERT promoter)]”, the binding signal (fmol shifted per ug protein) (oligo affinity column fraction, 25,332 units and 36.7 ug protein, activity assayed by Site C EMSA) was 690.

For the origin of these results see patent US20080213812.
